The supplement of paper PMC9170038

Experiments:
MS2 coat protein [1] = assay: apparent KD of MS2 coat protein; higher = weaker reporter binding; conditions: Eterna round: R101
Description: (§1)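 RNA-MaP: designed FMN/MS2 RNA switches (84 nt design region) are transcribed on-chip within common flanks and titrated with SNAP-549-labelled MS2 coat protein (about 1-3000 nM) in 100 mM Tris pH 7.5, 80 mM KCl, 4 mM MgCl2, without or with 200 uM FMN. Median apparent KD per design; activation ratio = KD,OFF / KD,ON.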

MS2 coat protein [2] = assay: apparent KD of MS2 coat protein; designed switch direction (-1 OFF switch, 1 ON switch): -1; higher = weaker reporter binding; conditions: Eterna round: R98
Description: as §1

| Sequence | apparent KD of MS2 coat protein (MS2 coat protein [1]; input ligand: FMN 200 uM) | apparent KD of MS2 coat protein (MS2 coat protein [1]; input ligand: none) | apparent KD of MS2 coat protein (MS2 coat protein [2]; input ligand: FMN 200 uM) | apparent KD of MS2 coat protein (MS2 coat protein [2]; input ligand: none) |
| --- | --- | --- | --- | --- |
| AGGCAGCACUGCUACGUGGCCUCACAUGAGGAUCACCCAUGUAAGGAUAUCGGGUAGCAUUACCACGAGAAGGUACAUAAGAGG [Ceisle] (puzzle (switch architecture): Exclusion NG 3) | 0.0258 µM | 0.015 µM | – | – |
| GGUCGACUUCAAGGAUAUGGACUGCUUUGCAGUCCAGAAGGUGAGGAUCACCCAUCUACGGUCAGGUUUCUGACCGAUCGACCU [#AddUracilToBrourdLoops 8 - Jieux - Exclusion NG1] (puzzle (switch architecture): Exclusion NG 1) | 0.102 µM | 0.0734 µM | – | – |
| AAAUAACUCGAAGGAUAUGACCCUCGAGGUGACUAAAAGUCACCUCGAGGGUCAGAAGGUCGAGGAUCACCCGACCUAAAUAAA [#SharedSequence SLExNG1: 5-1] (puzzle (switch architecture): Small Loop Exclusion NG 1) | 0.0368 µM | 0.0102 µM | – | – |
| GGUUGUUACGCAGGAUAUUGCCAACAGGCAGUAGGAUAUCCGAAAGGAGAAGGAUCGCCAACAGGCGAGAAGGGCGGGUUAACC [pwkr exNG2 2xF7 2FMN.10.5] | – | – | 0.121 µM | 1.24 µM |
| ACCAUUUACUAAUCCUCUAUACAUGAGGAUCACCCAUGUUCUGAGGAUAUCAUCGUUCGCCGCGUUGAGAAGGCAGAGCAUUCG [AriestionMod 1 - Jieux - Exclusion NG 3] | – | – | 0.0408 µM | 0.0268 µM |
| UUCUGUGCCCAAAGUUAAAGCACAUGAGGAUCACCCAUGUGAAAGGAUAUGUGGCAUGUAAUGUUAUAGAAGGUUCACAAUCAA [Reveention] | – | – | 0.0228 µM | 0.0142 µM |
| GAGGACUGUAAUAAUGUAGAAAUACAUGAGGAUCACCCAUGUAAGGAUAUCGUCAGGAAUACUGACGAGAAGGUACAUCAGUCC [Exclusion NG 3/10-A2] | – | – | 0.0248 µM | 0.0173 µM |
| UAUAUAUAGGCAGGAUAUACAUGUAUAUAUAAUAUAUUAUAUAUUAUUACAUGAGGAUCACCCAUGUAGAAGGGCCAUAAUAUA [LRO035_Exclusion NG 2] | – | – | 0.0527 µM | 0.03 µM |
| GUCACGAAUGUAGGAUAUCGAGUGGAAUACACUCGAGAAGGACAUGAGGAUCACCCAUGUAAAAUGAAAGAUAAUAAACGUGAC [Exclsuion NG 1/2-B1] | – | – | 0.0517 µM | 0.018 µM |
| AAAUAACUCGAAGGAUAUCAGGGUGCACCUCAGUAAAACUGAGGUGCACCCUGAGAAGGUCGAGGAUCACCCGACCUAAAUAAA [#SharedSequence SLExNG1: 5-2] (puzzle (switch architecture): Small Loop Exclusion NG 1) | 0.0198 µM | 0.00838 µM | – | – |
| UCGGCCCGGGAGAAGGACAUGAGGAUCACCCAUGUCGCCGGGCCCGGGAAACCGGGCCCGGCCAUGUAGGAUAUCCCGGGCCGA [#This is a good prank 2] (puzzle (switch architecture): Inverted Exclusion NG 2) | 0.00479 µM | 0.00459 µM | – | – |
| UUAUUUUUACAGAAGGUUUAAUAAUAUAUAAGAGAAGGAUAUGUAACAUGAGGAUCACCCAUGUUUCACCCAUAUGAGGAUCAU [Astosinvert#10] (puzzle (switch architecture): Inverted Exclusion NG 1) | 0.00794 µM | 0.00828 µM | – | – |
| AGGAGAAAUGUAGGAUAUGGGCGGGCGUACGGGCAAAGCGCGUACGCCCGCCCAGAAGGACAUGAGGAUCACCCAUGUUUCCCU [#Lowering the energy 1] (puzzle (switch architecture): Small Loop Exclusion NG 1) | 0.016 µM | 0.0145 µM | – | – |
| UGUCGGAGCAGAGGAUAUUACAUGAGGAUCACCCAUGUAUGAACCAAUAGCUGGAAACAGCAAUGUAAGAAGGCUGCUCCGACA (puzzle (switch architecture): Exclusion NG 2) | 0.177 µM | 0.0123 µM | – | – |
| UAUAUAAUUAAGAGCUGGUCCAAAACAUGAGGAUCACCCAUGUAGGAUAUCAGCACGAUAAGUGCUGAGAAGGACAACCAGCUC [Denovo 85] | – | – | 0.0152 µM | 0.0172 µM |
| AAAUAACUUGAAGGAUAUGACCCUCGAGGUGACUAAAAGUCACCUCGAGGGUCAGAAGGUCGAGGAUCACCCGACCUAAAUAAA [#SharedSequence SLExNG1: 6-1] (puzzle (switch architecture): Small Loop Exclusion NG 1) | 0.00669 µM | 0.00714 µM | – | – |
| UCGACGAAAGUCGAACGAUGUAGCAGAAGGACAUGAGGAUCACCCAUGUCAGCUGUAACAGCCAUGUAGGAUAUGCUACAUCGG [salish99_ISLExNG3_007 #endbits investigation] (puzzle (switch architecture): Inverted Small Loop Exclusion NG 3) | – | 0.00443 µM | – | – |
| ACAGGUCGUGAGAAGGCGUGUGGCACCGUCGAAAGACGGUGCAAUUAAGAUCUUCGAGGAUCACCCGAGGAUAUCACGACCUGA [#SharedSequence - IExNG2: 18] (puzzle (switch architecture): Inverted Exclusion NG 2) | 0.0704 µM | 0.0186 µM | – | – |
